Experimental findings from patent US20240044046A1 (BIOATLA, published 2024) are described below.

One assay deals with T1, B7H4 on T47D cells (human, UniProt Q7Z7D3 25-282).
T1 sequence (looked up): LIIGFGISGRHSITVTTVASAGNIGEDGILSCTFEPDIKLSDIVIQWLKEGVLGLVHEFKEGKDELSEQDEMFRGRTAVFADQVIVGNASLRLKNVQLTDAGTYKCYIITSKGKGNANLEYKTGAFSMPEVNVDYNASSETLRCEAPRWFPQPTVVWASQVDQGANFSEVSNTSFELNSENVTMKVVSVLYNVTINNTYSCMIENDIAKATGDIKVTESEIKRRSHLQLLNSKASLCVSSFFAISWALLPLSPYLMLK
The experiment in a line: cell-based or functional assay.

The target in the next assay is T2, CD73 on MCF-7 cells (human, UniProt P21589 27-549).
T2 sequence (looked up): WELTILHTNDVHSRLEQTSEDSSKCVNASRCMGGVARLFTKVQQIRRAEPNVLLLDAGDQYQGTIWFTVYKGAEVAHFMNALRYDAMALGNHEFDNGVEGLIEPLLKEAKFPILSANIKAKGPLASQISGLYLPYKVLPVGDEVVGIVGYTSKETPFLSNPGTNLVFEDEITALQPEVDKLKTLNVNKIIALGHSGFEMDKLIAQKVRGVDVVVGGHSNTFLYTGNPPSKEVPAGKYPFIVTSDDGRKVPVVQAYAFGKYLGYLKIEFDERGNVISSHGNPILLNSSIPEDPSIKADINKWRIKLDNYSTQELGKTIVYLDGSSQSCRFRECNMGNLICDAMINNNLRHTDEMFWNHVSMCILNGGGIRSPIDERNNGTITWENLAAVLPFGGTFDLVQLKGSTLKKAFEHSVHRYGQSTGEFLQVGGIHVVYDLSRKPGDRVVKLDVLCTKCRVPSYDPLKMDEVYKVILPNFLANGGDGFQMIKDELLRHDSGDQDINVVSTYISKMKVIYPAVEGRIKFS
The experiment in a line: cell-based or functional assay.

Numbering of substitutions follows the chain as printed. Names may count otherwise.

B1: BA-091-00-2E2 (antibody, V domains shown)
VH: QVQLQQSDAELVKPGASVKISCKVSGYTFTDRTIHWMKQRPEQGLEWIGSIYPRDGSTKYNEKFKDKATLTADKSSSTAYMQLNSLTSEDSAVYFCARSVGYAFDYWGQGTTLTVSS
VL: DIVLTQSPASLAVSLGQRATISCRVSEGIDNYGFTFIHWYQQKPGQPPKLLIYRASNLQSGIPARFSGSGSRTDFTLTIYPVETDDVATYYCQQSDKDPFTFGSGTKLEIK
For the molecule B1, in the assay with B7H4 on T47D cells, the “EC50 (ng/ml), ADCC reporter bioassay, Palbociclib Isethionate-treated T47D cells, pH 6.0” value worked out at 2.97 ng/ml; the “EC50 (ng/ml), ADCC reporter bioassay, Palbociclib Isethionate-treated T47D cells, pH 7.4” value was 10.2 ng/ml; the “EC50 (ng/ml), ADCC reporter bioassay, untreated T47D cells, pH 6.0” value came to 7.55 ng/ml; the “EC50 (ng/ml), ADCC reporter bioassay, untreated T47D cells, pH 7.4” value was 11.7 ng/ml. Moreover, in the assay with B7H4 on T47D cells, the “pH 7.4/pH 6.0 ratio of ADCC EC50, Palbociclib Isethionate-treated T47D cells” value worked out at 3.41 ratio and the “pH 7.4/pH 6.0 ratio of ADCC EC50, untreated T47D cells” value is 1.54 ratio.

B2: BA-091-02-04-04 (antibody, V domains shown)
VH: EVQLVQSGAEVKKPGATVKISCKVSGYTFTDRTIHWIRQSPSRGLEWLGSIYPRDGSTKYNEKFKDRVTITADKSTSTAYMELSSLRSEDTAVYYCARSVGYADDYWGQGTLVTVSS
VL: DVVMTQSPLSLPVTLGQPASISCRVSEGIDNYGFTFIHWYQQKPGKAPKLLIYRASNLQSGIPARFSGSGSGTEFTLTISSLQSEDFAVYYCQQSDKDPFTFGQGTKVEIK
As to B2, in the assay with B7H4 on T47D cells, the “EC50 (ng/ml), ADCC reporter bioassay, Palbociclib Isethionate-treated T47D cells, pH 6.0” value is 27 ng/ml; the “EC50 (ng/ml), ADCC reporter bioassay, Palbociclib Isethionate-treated T47D cells, pH 7.4” value stood at 149 ng/ml; the “EC50 (ng/ml), ADCC reporter bioassay, untreated T47D cells, pH 6.0” value is 98.1 ng/ml; the “EC50 (ng/ml), ADCC reporter bioassay, untreated T47D cells, pH 7.4” value came to 429 ng/ml. For the same molecule, in the assay with B7H4 on T47D cells, the “pH 7.4/pH 6.0 ratio of ADCC EC50, Palbociclib Isethionate-treated T47D cells” value stood at 5.53 ratio and the “pH 7.4/pH 6.0 ratio of ADCC EC50, untreated T47D cells” value was determined as 4.37 ratio.

B3: BAP147-WT (antibody, V domains shown)
VH: EVQLLESGGGLVQPGGSLRLSCAASGFTFSSYAYSWVRQAPGKGLEWVSAISGSGGRTYYADSVKGRFTISRDNSKNTLYLQMNSLRAEDTAVYYCARLGYGRVDEWGRGTLVTVSS
VL: QSVLTQPPSASGTPGQRVTISCSGSLSNIGRNPVNWYQQLPGTAPKLLIYLDNLRLSGVPDRFSGSKSGTSASLAISGLQSEDEADYYCATWDDSHPGWTFGGGTKLTVL
As for B3, in the assay with CD73 on MCF-7 cells, the “EC50 (ng/mL), ADCC reporter bioassay, Palbociclib Isethionate-treated MCF-7 cells, pH6.0” value worked out at 1.26 ng/mL; the “EC50 (ng/mL), ADCC reporter bioassay, Palbociclib Isethionate-treated MCF-7 cells, pH7.4” value turned out to be 1.16 ng/mL; the “EC50 (ng/mL), ADCC reporter bioassay, untreated MCF-7 cells, pH6.0” value (shortened to “EC50 (ng/mL) … untreated MCF-7 cells, pH6.0”) worked out at 2.17 ng/mL; the “EC50 (ng/mL), ADCC reporter bioassay, untreated MCF-7 cells, pH7.4” value (shortened to “EC50 (ng/mL) … untreated MCF-7 cells, pH7.4”) was determined as 1.07 ng/mL. In the assay with CD73 on MCF-7 cells, the “pH7.4/pH6.0 ratio of ADCC EC50, Palbociclib Isethionate-treated MCF-7 cells” value turned out to be 0.92 ratio and the “pH7.4/pH6.0 ratio of ADCC EC50, untreated MCF-7 cells” value amounted to 0.49 ratio.

B4: BAP147-LC-L051D (antibody, V domains shown)
VH: B3 VH
VL: B3 VL with L51D
For the molecule B4, in the assay with CD73 on MCF-7 cells, the “EC50 (ng/mL), ADCC reporter bioassay, Palbociclib Isethionate-treated MCF-7 cells, pH6.0” value worked out at 28.9 ng/mL; the “EC50 (ng/mL), ADCC reporter bioassay, Palbociclib Isethionate-treated MCF-7 cells, pH7.4” value is 134 ng/mL; the “EC50 (ng/mL) … untreated MCF-7 cells, pH6.0” value was determined as 44.2 ng/mL; the “EC50 (ng/mL) … untreated MCF-7 cells, pH7.4” value turned out to be 106 ng/mL. In the assay with CD73 on MCF-7 cells, the “pH7.4/pH6.0 ratio of ADCC EC50, Palbociclib Isethionate-treated MCF-7 cells” value was determined as 4.62 ratio and the “pH7.4/pH6.0 ratio of ADCC EC50, untreated MCF-7 cells” value was 2.39 ratio.

B5: BAP147-HC-Y101E (antibody, V domains shown)
VH: B3 VH with Y101E
VL: B3 VL
As to B5, in the assay with CD73 on MCF-7 cells, the “EC50 (ng/mL), ADCC reporter bioassay, Palbociclib Isethionate-treated MCF-7 cells, pH6.0” value is 55.9 ng/mL; the “EC50 (ng/mL), ADCC reporter bioassay, Palbociclib Isethionate-treated MCF-7 cells, pH7.4” value worked out at 545 ng/mL; the “EC50 (ng/mL) … untreated MCF-7 cells, pH6.0” value is 173 ng/mL; the “EC50 (ng/mL) … untreated MCF-7 cells, pH7.4” value was 100 ng/mL. In the assay with CD73 on MCF-7 cells, the “pH7.4/pH6.0 ratio of ADCC EC50, Palbociclib Isethionate-treated MCF-7 cells” value stood at 9.74 ratio and the “pH7.4/pH6.0 ratio of ADCC EC50, untreated MCF-7 cells” value was 0.577 ratio.
